In US8937048B2, “Anti-angiogenic compounds” (Covx Technologies Ireland, Limited, priority 2008, dated 2015):
One block for each compound: values may come before it. Where a SMILES comes first, the peptide text is derived from it. Bridges are numbered along the chain shown (N, C = ends). [ ]: non-standard residue; d: D form. The star is where a group is joined. Phe(4-COOH) = N[C@@H](Cc1ccc(C(=O)O)cc1)C(=O)O; X1 = O=C(COCC(=O)*)Nc1ccc(CCC(=O)N2CCC2=O)cc1; Nva = CCC[C@H](N)C(=O)O

Columns and labels:
[1] = biological target: T1, human angiopoietin-2 protein (Homo sapiens, UniProt O15123); assay: Ang2 competitive ELISA (Ang-2 coated, Tie-2-Fc competition); format: binding
T1 construct: purchased R&D Systems
T1 sequence (O15123 19-496): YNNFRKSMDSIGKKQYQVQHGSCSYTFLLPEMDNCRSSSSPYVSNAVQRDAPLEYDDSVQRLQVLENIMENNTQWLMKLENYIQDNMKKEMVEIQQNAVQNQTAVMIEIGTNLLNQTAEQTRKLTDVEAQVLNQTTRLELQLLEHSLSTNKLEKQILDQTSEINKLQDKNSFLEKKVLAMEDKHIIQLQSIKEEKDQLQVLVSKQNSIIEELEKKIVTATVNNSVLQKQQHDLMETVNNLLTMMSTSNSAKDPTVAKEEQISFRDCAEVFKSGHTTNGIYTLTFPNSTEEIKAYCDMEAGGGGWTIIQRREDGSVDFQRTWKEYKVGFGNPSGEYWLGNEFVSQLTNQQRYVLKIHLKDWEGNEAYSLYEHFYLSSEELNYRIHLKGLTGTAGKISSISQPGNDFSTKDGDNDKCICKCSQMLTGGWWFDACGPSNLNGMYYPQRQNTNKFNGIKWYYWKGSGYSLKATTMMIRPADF
Experimental: The ability of Ang2 binding compounds to interact with Ang2 was measured by competition with Tie-2. These tests were described in US2008166364 (and also in PCT/IE2007/000110), whose contents are herein incorporated by reference in their entirety. In particular, those portions of PCT/IE2007/000110 and US2008166364 detailing the advantages and disadvantages of various Ang2-binding peptides, and the advantages and disadvantages of covalently linking certain Ang2-binding peptides to catalytic antibodies (and those portions specifically relating to linking to h38C2), as well as the advantages and disadvantages of using specific residues of the respective Ang2-specific peptide as the linking residue (in this context, linking residue meaning the residue covalently linked to the linker (for example as used herein in Example 4)). For competitive ELISA, human angiopoietin-2 protein and Tie-2-Fc (R&D Systems) were reconstituted without carrier protein. Mouse anti-human Tie-2 (Pharmingen) was used as the primary antibody and goat anti-mouse-IgG 1-HRP (Pierce) was used as the secondary antibody. TMB substrate from Pierce was used.
High-binding half-well plates were coated with Ang-2 (100 ng/well) in 50 W PBS and incubated at 4° C. overnight. […] Color development was monitored and stopped with 25 μl of 2 M H2SO4. OD450 nm with a correction wavelength of 540 nm was measured.

[2] = Mouse half-life (T 1/2) and screening half-life of Ang2 binding compounds; format: in vivo, Swiss Webster mice; conditions: for half-life: mouse, in vivo, read-out: T ½ (Sc) hours, screening half life
Experimental: For “screening” T ½, test compounds were intravenously administered into male Swiss Webster mice. Blood samples were taken from 4 mice per time point via retroorbital sinus bleed at the following time points: 0.08, 5, and 32 hours. Blood level of test compounds were determined by ELISA. The data were reported as the percentage of test compounds at 32 hours versus 5 min. Normal T ½ was calculated in a similar fashion, after undergoing additional data analysis using WinNonlin version 4.1 (Pharsight Corporation). The data was fit to a model based upon the shape of the curve (i.e. a bi-exponential decline will be fit to a two compartment model, etc.) The criteria for best fit (i.e. lowest % CV) was based on iterative re-weighted least squares.

[3] = biological target: T1, human angiopoietin-2 protein; assay: Ang2 reverse competition ELISA (Tie-2-Fc coated); format: binding; conditions: Table 5, column T; read-out: Ang-2 T IC50
Experimental: Plates were washed three times with washing buffer (0.1% Tween 20, PBS, pH 7.4) and blocked with Superblock, 150 μl/well at RT for 1 hour. Plates were washed three times. […] Plates were washed 3 times, and 50 W of streptavidin HRP (1:200 dilution in Superblock) was added at RT for 20 minutes. […] OD450 nm with a correction wavelength of 540 nm was measured.

[4] = biological target: T2, recombinant human VEGF165 (Homo sapiens, UniProt P15692); assay: VEGF peptide binding assay (competition ELISA, VEGF165 binding to coated VEGFR2/Fc)
T2 sequence (P15692 27-191 isoform P15692-4): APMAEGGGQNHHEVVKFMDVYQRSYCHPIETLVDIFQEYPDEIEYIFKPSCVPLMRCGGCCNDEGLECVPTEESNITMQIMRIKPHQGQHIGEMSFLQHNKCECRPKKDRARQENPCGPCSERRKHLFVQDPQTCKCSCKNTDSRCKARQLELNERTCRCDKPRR
Summary of the method: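 VEGFR2/Fc was coated, and peptides (0.128–10,000 nM, N-acetyl, C-amide) were preincubated with 25 ng/ml human VEGF165 and added for 1 h at RT. Bound VEGF was detected with biotinylated anti-VEGF, streptavidin-HRP and TMB at OD450. IC50 came from sigmoid dose-response fits of OD450 versus concentration.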

[5] = Table 5, screening half life (in parentheses), shorter test period

- IC50 ([1]; Table 5, column P): 17.4 nM
- IC50 [3]: 207 nM
Compound: Q(Kac)Y QPL DEL DK(4P)T LYD QFM LQQ G [Compound 4024]
- T ½ hours ([2]; Table 5, half-life (value not in parentheses)): 104 h
- T ½ (Sc) hours, screening half life [2, 5]: (27) hours

Compound: CSCC[C@H](NC(=O)[C@H](Cc1ccccc1)NC(=O)[C@H](CCC(N)=O)NC(=O)[C@H](CC(=O)O)NC(=O)[C@H](Cc1ccc(O)cc1)NC(=O)[C@H](CCC(C)C)NC(=O)[C@@H](NC(=O)[C@H](CCCCNC(=O)COCC(=O)Nc1ccc(CCC(=O)N2CCC2=O)cc1)NC(=O)[C@H](CC(=O)O)NC(=O)[C@H](CC(C)C)NC(=O)[C@H](CCC(=O)O)NC(=O)[C@H](CC(=O)O)NC(=O)[C@H](CC(C)C)NC(=O)[C@@H]1CCCN1C(=O)[C@H](CCC(N)=O)NC(=O)[C@H](Cc1ccc(O)cc1)NC(=O)[C@H](CCCCNC(C)=O)NC(=O)[C@H](CCC(N)=O)NC(C)=O)[C@@H](C)O)C(=O)N[C@@H](CC(C)C)C(=O)N[C@@H](CCC(N)=O)C(=O)N[C@@H](CCC(N)=O)C(=O)NCC(N)=O [Compound 4042]
- half-life [2, 5]: 42 h

- IC50 ([1]; Table 6, column P): 36.4 nM
Compound: CSCC[C@H](NC(=O)[C@H](Cc1ccccc1)NC(=O)[C@H](CCC(N)=O)NC(=O)[C@H](CC(=O)O)NC(=O)[C@H](Cc1ccc(O)cc1)NC(=O)[C@H](CC(C)C)NC(=O)[C@@H](NC(=O)[C@H](CCCCN)NC(=O)[C@H](CC(=O)O)NC(=O)[C@H](CC(C)C)NC(=O)[C@H](CCC(=O)O)NC(=O)[C@H](CC(=O)O)NC(=O)[C@H](CC(C)C)NC(=O)[C@@H]1CCCN1C(=O)[C@H](CCC(N)=O)NC(=O)[C@H](Cc1ccc(O)cc1)NC(=O)[C@H](CCCCN)NC(=O)[C@H](CCC(N)=O)NC(C)=O)[C@@H](C)O)C(=O)N[C@@H](CC(C)C)C(=O)N[C@@H](CCC(N)=O)C(=O)N[C@@H](CCC(N)=O)C(=O)NCC(N)=O [Compound 4021]

Compound: CSCC[C@H](NC(=O)[C@H](Cc1ccccc1)NC(=O)[C@H](CCC(N)=O)NC(=O)[C@H](CC(=O)O)NC(=O)[C@H](Cc1ccc(C(=O)O)cc1)NC(=O)[C@H](CC(C)C)NC(=O)[C@@H](NC(=O)[C@H](CCCCNC(=O)COCC(=O)Nc1ccc(CCC(=O)N2CCC2=O)cc1)NC(=O)[C@H](CC(=O)O)NC(=O)[C@H](CC(C)C)NC(=O)[C@H](CCC(=O)O)NC(=O)[C@H](CC(=O)O)NC(=O)[C@H](CC(C)C)NC(=O)[C@@H]1CCCN1C(=O)[C@H](CCC(N)=O)NC(=O)[C@H](Cc1ccc(O)cc1)NC(=O)[C@H](CC(N)=O)NC(=O)[C@H](CCC(N)=O)NC(C)=O)[C@@H](C)O)C(=O)N[C@@H](CC(C)C)C(=O)N[C@@H](CCC(N)=O)C(=O)N[C@@H](CCC(N)=O)C(=O)NCC(N)=O [Compound 4057] (Ac-QNYQPLDELDK(X1)TL[Phe(4-COOH)]DQFMLQQG-NH2)
- half-life [2, 5]: 11 h

Compound: CCC[C@H](NC(=O)[C@@H](NC(=O)[C@H](CCCCNC(=O)COCC(=O)Nc1ccc(CCC(=O)N2CCC2=O)cc1)NC(=O)[C@H](CC(=O)O)NC(=O)[C@H](CC(C)C)NC(=O)[C@H](CCC(=O)O)NC(=O)[C@H](CC(=O)O)NC(=O)[C@H](CC(C)C)NC(=O)[C@@H]1CCCN1C(=O)[C@H](CCC(N)=O)NC(=O)[C@H](Cc1ccc(O)cc1)NC(=O)[C@H](CCCCNC(C)=O)NC(=O)[C@H](CCC(N)=O)NC(C)=O)[C@@H](C)O)C(=O)N[C@@H](Cc1ccc(O)cc1)C(=O)N[C@@H](CC(=O)O)C(=O)N[C@@H](CCC(N)=O)C(=O)N[C@@H](Cc1ccccc1)C(=O)N[C@@H](CCSC)C(=O)N[C@@H](CC(C)C)C(=O)N[C@@H](CCC(N)=O)C(=O)N[C@@H](CCC(N)=O)C(=O)NCC(N)=O [Compound 4041] (Ac-QK(Ac)YQPLDELDK(X1)T[Nva]YDQFMLQQG-NH2)
- half-life [2, 5]: 36 h

Compound: CSCC[C@H](NC(=O)[C@H](Cc1ccccc1)NC(=O)[C@H](CCC(N)=O)NC(=O)[C@H](CC(=O)O)NC(=O)[C@H](Cc1ccc(O)cc1)NC(=O)[C@H](CC(C)C)NC(=O)[C@@H](NC(=O)[C@H](CCCCNC(=O)COCC(=O)Nc1ccc(CCC(=O)N2CCC2=O)cc1)NC(=O)[C@H](CC(=O)O)NC(=O)[C@H](CC(C)C)NC(=O)[C@H](CCC(=O)O)NC(=O)[C@H](CC(=O)O)NC(=O)[C@H](CC(C)C)NC(=O)[C@@H]1CCCN1C(=O)[C@H](CCC(N)=O)NC(=O)[C@H](Cc1ccc(O)cc1)NC(=O)[C@H](CCCCNC(C)=O)NC(=O)[C@H](CCC(N)=O)NC(=O)CCOCCOCCNC(C)=O)[C@@H](C)O)C(=O)N[C@@H](CC(C)C)C(=O)N[C@@H](CCC(N)=O)C(=O)N[C@@H](CCC(N)=O)C(=O)NCC(N)=O [Compound 4052, (Amido 2-PEG)QKacY QPL DEL DK(0P)T LYD QFMLQQ G]
- half-life [2, 5]: 31 h

Compound: CC[C@H](C)[C@@H]1NC(=O)[C@H](CC(=O)O)NC(=O)[C@@H](NC(=O)[C@H](CC(N)=O)NC(=O)[C@@H]2CCCN2C(=O)[C@H](CCC(=O)O)NC(=O)[C@@H](NC(C)=O)C(C)C)CSSC[C@@H](C(=O)N[C@@H](Cc2ccccc2)C(=O)N[C@@H](CCC(=O)O)C(=O)N[C@@H](CCCNC(=N)N)C(=O)N[C@@H](CC(C)C)C(=O)N[C@@H](Cc2ccc(O)cc2)C(=O)NCC(=O)N[C@@H](CC(C)C)C(N)=O)NC(=O)[C@H](CCC(=O)O)NC(=O)[C@H](Cc2c[nH]c3ccccc23)NC(=O)[C@H](C(C)C)NC(=O)[C@H](Cc2c[nH]c3ccccc23)NC(=O)[C@H](CCSC)NC(=O)[C@H](C(C)C)NC(=O)[C@H](Cc2c[nH]cn2)NC1=O [Compound 72, VEPNCDIHVMWVWECFERLYGL] (Ac-VEPNCDIHVMWVWECFERLYGL-NH2; disulfide 5-15 (inferred))
- IC50 [4]: 4.8 nM

Compound: CC[C@H](C)[C@@H]1NC(=O)[C@H](CC(=O)O)NC(=O)[C@@H](NC(=O)[C@H](CC(N)=O)NC(=O)[C@@H]2CCCN2C(=O)[C@H](CCC(=O)O)NC(=O)[C@@H](NC(C)=O)C(C)C)CSSC[C@@H](C(=O)N[C@@H](Cc2ccccc2)C(=O)N[C@@H](CCC(=O)O)C(=O)N[C@@H](CCCNC(=N)N)C(=O)N[C@@H](CC(C)C)C(=O)N[C@@H](CCSC)C(=O)N[C@@H](CCCNC(=N)N)C(N)=O)NC(=O)[C@H](CCC(=O)O)NC(=O)[C@H](Cc2c[nH]c3ccccc23)NC(=O)[C@H](C(C)C)NC(=O)[C@H](Cc2c[nH]c3ccccc23)NC(=O)[C@H](CCSC)NC(=O)[C@H](C(C)C)NC(=O)[C@H](Cc2c[nH]cn2)NC1=O [Compound 49, VEPNCDIHVMWVWECFERLMR] (Ac-VEPNCDIHVMWVWECFERLMR-NH2; disulfide 5-15 (inferred))
- IC50 [4]: 34.5 nM
